# Laboratory results: patent US20250375499A1 (FLAGSHIP PIONEERING INNOVATIONS VII, published 2025)
# Where two headings read alike, the source gives them in different places.
# B1: recombinant human LIGHT (Acro Bio LIT-H5242) (ligand)
# chain: LIQERRSHEVNPAAHLTGANSSLTGSGGPLLWETQLGLAFLRGLSYHDGALVVTKAGYYYIYSKVQLGGVGCPLGLASTITHGLYKRTPRYPEELELLVSQQSPCGRATSSSRVWWDSSFLGGVVHLEAGEKVVVRVLDERLVRLRDGTRSYFGAFMV
# notes: Bought protein; also called hLIGHT; Tumor Necrosis Factor Ligand Superfamily Member 14
# B2: recombinant human TL1A (Acro Bio TLA-H5244), plate bound (ligand)
# chain: LKGQEFAPSHQQVYAPLRADGDKPRAHLTVVRQTPTQHFKNQFPALHWEHELGLAFTKNRMNYTNKFLLIPESGDYFIYSQVTFRGMTSECSEIRQAGRPNKPDSITVVITKVTDSYPEPTQLLMGTKSVCEVGSNWFQPIYLGAMFSLQEGDKLMVNVSDISLVDYTKEDKTFFGAFLL
# notes: Bought protein; also called hTL1A; Tumor Necrosis Factor Ligand Superfamily Member 15
# B3: DcR3-hFc (Fc fusion)
# chain: VAETPTYPWRDAETGERLVCAQCPPGTFVQRPCRRDSPTTCGPCPPRHYTQFWNYLERCRYCNVLCGEREEEARACHATHNRACRCRTGFFAHAGFCLEHASCPPGAGVIAPGTPSQNTQCQPCPPGTFSASSSSSEQCQPHRNCTALGLALNVPGSSSHDTLCTSCTGFPLSTRVPGAEECERAVIDFVAFQDISIKRLQRLLQALEAPEGWGPTPRAGRAALQLKLRRRLTELLGAQDGALLVRLLQALRVARMPGLERSVRERFLPVH
# notes: also called Acro Bio TNB-H5255; not shown: The hIgG1 Fc at the C-terminus, and any linker, of the vendor reagent Acro Bio TNB-H5255
# B4: recombinant human FASL (Acro Bio HAL-H5241) (ligand)
# chain: PSPPPEKKELRKVAHLTGKSNSRSMPLEWEDTYGIVLLSGVKYKKGGLVINETGLYFVYSKVYFRGQSCNNLPLSHKVYMRNSKYPQDLVMMEGKMMSYCTTGQMWARSSYLGAVFNLTSADHLYVNVSELSLVNFEESQTFFGLYKL
# notes: Bought protein; also called hFASL; FAS Ligand
# Experiments:
# TNFR2 ECD-Fc [1] = biological target: T1, TNFR2 ECD-Fc (human, UniProt P20333); experiment: ELISA: plate coated with recombinant human LIGHT (2 µg/mL), Fc-tagged protein titrated 3-fold from 10 nM, anti-human Fc HRP, OD 450 nm background subtracted
# T1 construct: Fc region, C-terminal fusion partner; also called TNFR2 ECD-hFc; Ichor Bio ICH4022
# T1 sequence (TNFR2 ECD-Fc fusion chain): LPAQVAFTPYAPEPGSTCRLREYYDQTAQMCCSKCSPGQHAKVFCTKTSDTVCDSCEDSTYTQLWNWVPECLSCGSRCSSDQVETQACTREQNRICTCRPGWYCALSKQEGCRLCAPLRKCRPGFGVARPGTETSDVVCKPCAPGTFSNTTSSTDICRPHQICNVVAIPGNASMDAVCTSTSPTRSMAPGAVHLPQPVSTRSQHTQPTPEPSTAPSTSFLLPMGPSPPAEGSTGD
# Procedure: (§1) Briefly, Maxisorp 384 well plates (Thermo Nunc Cat #P6366-1CS) were coated with 25 μL of 2 μg/mL of recombinant human TNFSF ligands: TNFα (Acro Bio TNA-H5228), TL1A (Acro Bio TLA-H5244), FASL (Acro Bio HAL-H5241), or LIGHT (Acro Bio LIT-H5242) in PBS or were coated with PBS alone overnight at 4° C. The plates were washed 3 times with 0.1% PBS-T and incubated with SuperBlock blocking buffer (Thermo Fisher 37515) for 1 hour at room temperature with shaking at 400 RPM. […] Plates were incubated for 1 hour at room temperature with shaking at 400 RPM. ELISA plates were washed 3 times with 0.1% PBS-T and incubated with an anti-human Fc HRP conjugated secondary antibody (ThermoFisher Scientific Cat #H10307) 1:2000 in 0.1% PBS-T for 1 hour at room temperature with shaking at 400 RPM. The plates were washed 3 times with 0.1% PBS-T and incubated with 20 μL of TMB (ThermoFisher Scientific Cat #34028) per well. The reaction was stopped at 5 minutes by adding 20 μL of Stop Solution (BioFX LSTP-1000-01). […] Blank subtracted ODs were calculated by subtracting the ODs from the blank plate from the readings from each of the ligand plates and data was plotted using PRISM (version 10.0.2).
# TNFR2 ECD-Fc [2] = biological target: T1, TNFR2 ECD-Fc; experiment: ELISA: plate coated with recombinant human TL1A (2 µg/mL), Fc-tagged protein titrated 3-fold from 10 nM, anti-human Fc HRP, OD 450 nm background subtracted
# Procedure: as §1
# [3] = biological target: B4; experiment: ELISA: plate coated with recombinant human FASL (2 µg/mL), Fc-tagged protein titrated 3-fold from 10 nM, anti-human Fc HRP, OD 450 nm background subtracted
# Procedure: as §1
# [4] = biological target: B1; experiment: ELISA: plate coated with recombinant human LIGHT (2 µg/mL), Fc-tagged protein titrated 3-fold from 10 nM, anti-human Fc HRP, OD 450 nm background subtracted
# Procedure: as §1
# [5] = biological target: B1; experiment: as above; remark: listed apart in the source
# Procedure: as §1
# [6] = biological target: B4; experiment: ELISA: plate coated with recombinant human FASL (2 µg/mL), Fc-tagged protein titrated 3-fold from 10 nM, anti-human Fc HRP, OD 450 nm background subtracted; remark: listed apart in the source
# Procedure: as §1
# [7] = biological target: B4; experiment: as above; remark: listed apart in the source
# Procedure: as §1
# [8] = biological target: B2; experiment: ELISA: plate coated with recombinant human TL1A (2 µg/mL), Fc-tagged protein titrated 3-fold from 10 nM, anti-human Fc HRP, OD 450 nm background subtracted
# Procedure: as §1
# [9] = biological target: B4; experiment: ELISA: plate coated with recombinant human FASL (2 µg/mL), Fc-tagged protein titrated 3-fold from 10 nM, anti-human Fc HRP, OD 450 nm background subtracted; remark: listed apart in the source
# Procedure: as §1
# [10] = biological target: B2; experiment: ELISA: plate coated with recombinant human TL1A (2 µg/mL), Fc-tagged protein titrated 3-fold from 10 nM, anti-human Fc HRP, OD 450 nm background subtracted; remark: listed apart in the source
# Procedure: as §1
# [11] = biological target: B1; experiment: ELISA: plate coated with recombinant human LIGHT (2 µg/mL), Fc-tagged protein titrated 3-fold from 10 nM, anti-human Fc HRP, OD 450 nm background subtracted; remark: listed apart in the source
# Procedure: as §1
# [12] = biological target: B1; experiment: as above; remark: listed apart in the source
# Procedure: as §1
# [13] = biological target: B2; experiment: ELISA: plate coated with recombinant human TL1A (2 µg/mL), Fc-tagged protein titrated 3-fold from 10 nM, anti-human Fc HRP, OD 450 nm background subtracted; remark: listed apart in the source
# Procedure: as §1
# [14] = biological target: B4; experiment: ELISA: plate coated with recombinant human FASL (2 µg/mL), Fc-tagged protein titrated 3-fold from 10 nM, anti-human Fc HRP, OD 450 nm background subtracted; remark: listed apart in the source
# Procedure: as §1
# [15] = biological target: B1; experiment: ELISA: plate coated with recombinant human LIGHT (2 µg/mL), Fc-tagged protein titrated 3-fold from 10 nM, anti-human Fc HRP, OD 450 nm background subtracted; remark: listed apart in the source
# Procedure: as §1
# [16] = biological target: B2; experiment: ELISA: plate coated with recombinant human TL1A (2 µg/mL), Fc-tagged protein titrated 3-fold from 10 nM, anti-human Fc HRP, OD 450 nm background subtracted; remark: listed apart in the source
# Procedure: as §1
# [17] = biological target: B2; experiment: as above; remark: listed apart in the source
# Procedure: as §1
# TNFR2 ECD-Fc [18] = biological target: T1, TNFR2 ECD-Fc; experiment: ELISA: plate coated with recombinant human FASL (2 µg/mL), Fc-tagged protein titrated 3-fold from 10 nM, anti-human Fc HRP, OD 450 nm background subtracted
# Procedure: as §1
binder,measurement,setting,value
B1,binding result,TNFR2 ECD-Fc [1],no binding (tested: 10 nM (LOG[Dose] 1))
B2,binding result,TNFR2 ECD-Fc [2],no binding (tested: 10 nM (LOG[Dose] 1))
B3,EC50 (read off the curve),[3],~0.1 nM
same,EC50 (read off the curve),[4],~0.2 nM
same,EC50 (read off the curve),[5],~0.2 nM
same,EC50 (read off the curve),[6],~0.1 nM
same,EC50 (read off the curve),[7],~0.1 nM
same,EC50 (read off the curve),[8],~0.1 nM
same,EC50 (read off the curve),[9],~0.1 nM
same,EC50 (read off the curve),[10],~0.1 nM
same,EC50 (read off the curve),[11],~0.2 nM
same,EC50 (read off the curve),[12],~0.2 nM
same,EC50 (read off the curve),[13],~0.1 nM
same,EC50 (read off the curve),[14],~0.1 nM
same,EC50 (read off the curve),[15],~0.2 nM
same,EC50 (read off the curve),[16],~0.1 nM
same,EC50 (read off the curve),[17],~0.1 nM
B4,binding result,TNFR2 ECD-Fc [18],no binding (tested: 10 nM (LOG[Dose] 1))
